Results on 16 molecules are retold here after patent US20060253917A1 (published 2006).

Assay [1] deals with T1, OsHSP70 aa 138-360 (Oryza sativa).
T1 construct: bait, Gal4 DBD fusion; also called PN20775; heat shock protein hsp70
Kind of assay: Y2H; output trait library. The procedure, abridged: (§1)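 Rice protein fragments, each defined by an amino-acid range, served as bait against rice prey clone libraries in an automated, high-throughput yeast two-hybrid screen supplied by Myriad Genetics Inc. Prey clones that interacted were retrieved from the output trait library. The sequences encoding the retrieved fragments were compared against databases by BLAST analysis to identify the full-length genes. Each value records whether an interaction was detected.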

Assay [2] concerns the target T2, OsTFX1 aa 400-629 (Oryza sativa).
T2 construct: bait, Gal4 DBD fusion; also called PN19697; O. sativa Putative Transcription Factor X1
Kind of assay: Y2H; output trait library. The procedure, abridged:
(§2)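 Myriad Genetics Inc. (Salt Lake City, Utah) supplied the automated, high-throughput yeast two-hybrid assay used to detect protein-protein interactions. A bait clone encoding a defined amino-acid fragment of a rice protein was screened against a rice prey library, either the input trait or the output trait library. To identify the interacting proteins, prey clones were retrieved and their encoding sequences were compared against databases by BLAST.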

The target of assay [3] is T3, OsMADS45 aa 61-248 (Oryza sativa, UniProt P0C5B0 61-248).
T3 construct: prey, AD fusion; also called PN20231
T3 sequence: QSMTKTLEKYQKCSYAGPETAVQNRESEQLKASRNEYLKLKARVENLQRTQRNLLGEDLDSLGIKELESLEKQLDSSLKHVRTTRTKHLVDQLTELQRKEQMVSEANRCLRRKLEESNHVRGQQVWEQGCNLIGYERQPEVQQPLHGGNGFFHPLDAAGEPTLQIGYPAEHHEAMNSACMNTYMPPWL
Nature of the assay: Y2H; output trait library. The method, boiled down:
as §2

Assay [4] deals with T4, OsHOS59 aa 1-206 (Oryza sativa, UniProt Q94LW4 113-311).
T4 construct: bait, Gal4 DBD fusion; also called PN20559
T4 sequence: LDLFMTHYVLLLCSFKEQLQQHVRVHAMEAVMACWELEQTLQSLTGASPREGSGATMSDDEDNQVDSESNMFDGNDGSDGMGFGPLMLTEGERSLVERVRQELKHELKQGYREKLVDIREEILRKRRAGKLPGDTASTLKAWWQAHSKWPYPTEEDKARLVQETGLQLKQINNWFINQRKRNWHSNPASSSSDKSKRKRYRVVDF
Kind of assay: Y2H; output trait library. The procedure, abridged:
as §2

Assay [5] deals with T5, OsMADS45 aa 50-198 (Oryza sativa, UniProt P0C5B0 50-198).
T5 construct: bait, Gal4 DBD fusion; also called PN20231; O. sativa MADS box protein MADS45
T5 sequence: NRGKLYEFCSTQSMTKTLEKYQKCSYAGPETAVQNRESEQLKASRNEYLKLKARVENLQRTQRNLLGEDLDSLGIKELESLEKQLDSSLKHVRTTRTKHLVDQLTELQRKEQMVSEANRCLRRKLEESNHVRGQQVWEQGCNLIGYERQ
Nature of the assay: Y2H; input trait library. The method, boiled down: as §2

For assay [6], the target named is T5, OsMADS45 aa 50-198. Nature of the assay: Y2H; output trait library. The method, boiled down:
as §2

Assay [7] concerns the target T6, Os018989-4003 aa 90-220 (Oryza sativa).
T6 construct: bait, Gal4 DBD fusion; also called PN21044
T6 chain: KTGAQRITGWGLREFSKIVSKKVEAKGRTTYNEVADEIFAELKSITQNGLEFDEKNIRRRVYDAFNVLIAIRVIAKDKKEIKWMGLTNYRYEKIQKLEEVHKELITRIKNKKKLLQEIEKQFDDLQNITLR
Kind of assay: Y2H; input trait library. The method, boiled down: as §2

Assay [8] deals with T7, OsSGT1 aa 200-368 (Oryza sativa, UniProt Q0JL44 200-367).
T7 construct: bait, Gal4 DBD fusion; also called PN20285
T7 sequence: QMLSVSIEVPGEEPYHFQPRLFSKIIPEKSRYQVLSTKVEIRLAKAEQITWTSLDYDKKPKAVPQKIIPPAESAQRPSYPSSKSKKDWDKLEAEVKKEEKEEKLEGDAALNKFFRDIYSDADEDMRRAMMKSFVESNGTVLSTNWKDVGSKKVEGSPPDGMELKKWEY
Nature of the assay: Y2H; output trait library. The method, boiled down:
as §1

In assay [9] the target is T8, OsCYCOS2 aa 50-233 (Oryza sativa, UniProt A2YH60 50-233).
T8 construct: bait, Gal4 DBD fusion; also called PN20257; O. sativa Cyclin OsCYCOS2
T8 chain: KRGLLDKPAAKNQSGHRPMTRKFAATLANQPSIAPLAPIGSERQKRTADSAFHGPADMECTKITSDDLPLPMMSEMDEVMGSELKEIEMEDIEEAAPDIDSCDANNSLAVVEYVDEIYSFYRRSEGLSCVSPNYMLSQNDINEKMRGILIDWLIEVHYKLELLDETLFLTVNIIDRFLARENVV
Nature of the assay: Y2H; input trait library. The method, boiled down:
as §2

T1 sequence (chain, as listed by the source): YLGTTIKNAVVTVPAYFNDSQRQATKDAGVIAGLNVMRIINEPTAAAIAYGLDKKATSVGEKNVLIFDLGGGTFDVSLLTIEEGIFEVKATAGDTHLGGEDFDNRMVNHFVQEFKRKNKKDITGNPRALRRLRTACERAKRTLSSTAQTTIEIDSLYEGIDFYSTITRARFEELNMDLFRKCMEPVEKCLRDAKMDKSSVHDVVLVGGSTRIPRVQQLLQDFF
T2 sequence (chain, as listed by the source): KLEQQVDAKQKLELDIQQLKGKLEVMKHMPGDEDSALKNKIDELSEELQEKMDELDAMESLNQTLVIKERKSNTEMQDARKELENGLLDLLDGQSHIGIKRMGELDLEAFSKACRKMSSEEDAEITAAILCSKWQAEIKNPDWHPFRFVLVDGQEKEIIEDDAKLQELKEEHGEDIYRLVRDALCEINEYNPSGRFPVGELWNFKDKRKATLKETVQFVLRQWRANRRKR

B1: OsPN29117 aa 29-160 (other)
chain: VPAHSTFGELKGVLTQATGVEPERQRLFFRGKEKSDNEFLHTAGVKDGAKLLLLEKPAPANVEQRAEPVIMDESMMKACEAVGRVRAEVDRLSAKVCDLEKSVFAGRKIEDKDFVVLTELLMMELLKLDGIE
notes: prey, AD fusion
B1: in [1], the binding result is reported as “binds”.

B2: OsPN23829 prey clone -4-226 (other)
chain: MALSVEKTSSGREYKVKDLSQADFGRLEIELAEVEMPGLMACRAEFGPSQPFKGARISGSLHMTIQTAVLIETLTALGAEVRWCSCNIFSTQDHAAAAIARDSAAVFAWKGETLEEYWWCTERCLDWGVGGGPDLIVDDGGDATLLIHEGVKAEEEFEKSGKVPDPESTDNAEFKIVLTIIRDGLKSDPSKYRKMKERLVGVSEETTTGVKRLYQMQETGALLFPA
notes: prey, AD fusion
With B2, the binding result in [2] is “binds”.

B3: OsRAP1B aa 30-180 (other)
chain: KKANEISVLCDAEVALIIFSTKGKLYEYATDSCMDKILERYERYSYAEKVLISAESDTQGNWCHEYRKLKAKVETIQKCQKHLMGEDLESLNLKELQQLEQQLENSLKHIRSRKSQLMLESINELQRKEKSLQEENKVLQKELVEKQKVQK
notes: bait, Gal4 DBD fusion; also called PN20232
For B3, the binding result in assay [3] is given as “binds”.

B4: OsPN29117 aa 11-160 (other)
chain: GPAVRLRVSHGASFRDVAVPAHSTFGELKGVLTQATGVEPERQRLFFRGKEKSDNEFLHTAGVKDGAKLLLLEKPAPANVEQRAEPVIMDESMMKACEAVGRVRAEVDRLSAKVCDLEKSVFAGRKIEDKDFVVLTELLMMELLKLDGIE
notes: prey, AD fusion
For B4, the binding result in assay [1] is “binds”.

B5: OsPN30858 aa 230-400 (other)
chain: VRTFLERTHERCRASYMEAVLEKQSYILLSRNDVESLMRLDPANLSLQNSFGQLDHSIPDAEAVEVEIELSDLLLDMCPIKQENLIHDDQKLILLASLSDSLEYLADSVERLGESFINSSTMLENKNHIHQGRHTRSTSAIPKSLASLANEYRRLAIDCVRVLRLEMQLET
notes: prey, AD fusion; also called Novel Protein PN30858
On to B5, for which the binding result in assay [4] was “binds”.

B6: OsPN23495 aa 39-165 (other)
chain: RLMVLRMAMDIQKFMQNPQLHEFEFQHFPTSYLRCAAHRVAQHYGLETTVADSLVDGSVSKIVAKKTSESKLPVIALSEVPSKQARNEHEAAEKLKFVICPRPKAFQNGAGDAGAKNNAARTVEERI
notes: prey, AD fusion; also called Novel protein PN23495
Turning to B6, the binding result in assay [5] is “binds”.

B7: OsMADS14 aa 82-197 (other)
chain: SAESDTQGNWCHEYRKLKAKVETIQKCQKHLMGEDLESLNLKELQQLEQQLENSLKHIRSRKSQLMLESINELQRKEKSLQEENKVLQKELVEKQKVQKQQVQWDQTQPQTSSSSS
notes: prey, AD fusion; also called PN20910
Take B7: in assay [6], the binding result is “binds”.

B8: OsAAK72891 aa 322-549 (other)
chain: EIITYFKSEMSKLKRMHELDLQEKTEELFKFKREKGLLTLKNDVEFEPLRKKIPQIISRMDQIISKNIKMPSLCMTNDGLDERCISAKRIDSLYYENQHLRGLLADNMKDVKELSSQLSEASKEMSIQLSSEDDLLRQIAKIKEEYEDLQIEAGVRDGVYQTITRKLLDDSMNSMHDAATNFSTELSSLEAMISEKEKALCLSNEENRMLKEKIAELEQCLIQDKQED
notes: prey, AD fusion; also called PN26317
B8: the binding result in assay [7] is “binds”.

B9: OsMADS14 aa 124-223 (other)
chain: ELQQLEQQLENSLKHIRSRKSQLMLESINELQRKEKSLQEENKVLQKELVEKQKVQKQQVQWDQTQPQTSSSSSSFMMREALPTTNISNYPAAAGERIED
notes: as for B7
With B9, in assay [6], the binding result was “binds”.

B10: OsPN23829 aa 1-247 (other)
chain: MALSVEKTSSGREYKVKDLSQADFGRLEIELAEVEMPGLMACRAEFGPSQPFKGARISGSLHMTIQTAVLIETLTALGAEVRWCSCNIFSTQDHAAAAIARDSAAVFAWKGETLEEYWWCTERCLDWGVGGGPDLIVDDGGDATLLIHEGVKAEEEFEKSGKVPDPESTDNAEFKIVLTIIRDGLKSDPSKYRKMKERLVGVSEETTTGVKRLYQMQETGALLFPAINVNDSVTKSKFDNLYGCRHS
notes: prey, AD fusion
Regarding B10, the binding result in [4] is recorded as “binds”.

B11: OsSGT1 aa 9-227 (other)
chain: LESKAKAAFVDDDFELAAELYTQAIEASPATAELYADRAQAHIKLGNYTEAVADANKAIELDPSMHKAYLRKGAACIRLEEYQTAKAALELGYSFASGDSRFTRLMKECDERIAEELTEVPVKKAEDGAAAPSVASFVEEKDDAANMDNTPPMVEVKPKYRHDFYNSATEVVLTIFAKGVPAENVVVDFGEQMLSVSIEVPGEEPYHFQPRLFSKIIPE
notes: prey, AD fusion; also called PN20285
On to B11, for which the binding result in assay [8] is given as “binds”.

B12: OsPN23495 aa 12-198 (other)
chain: PPAAAEDGRVTSHVDPFLVEALDNPRHRLMVLRMAMDIQKFMQNPQLHEFEFQHFPTSYLRCAAHRVAQHYGLETTVADSLVDGSVSKIVAKKTSESKLPVIALSEVPSKQARNEHEAAEKLKFVICPRPKAFQNGAGDAGAKNNAARTVEERIEEYNKARARIFNGSISDIEGTSDLGALSVARDE
notes: prey, AD fusion
Regarding B12, the binding result in assay [5] is recorded as “binds”.

B13: OsAAK72891 aa 342-638 (other)
chain: LQEKTEELFKFKREKGLLTLKNDVEFEPLRKKIPQIISRMDQIISKNIKMPSLCMTNDGLDERCISAKRIDSLYYENQHLRGLLADNMKDVKELSSQLSEASKEMSIQLSSEDDLLRQIAKIKEEYEDLQIEAGVRDGVYQTITRKLLDDSMNSMHDAATNFSTELSSLEAMISEKEKALCLSNEENRMLKEKIAELEQCLIQDKQEDPEVIKQESTEIILRDIEVAPHISPRRSHETPKQDMQYDELVKLNSSLEIASAALKEVENKNIDYNGIFTKNEQEKQLECILISIMKLSK
notes: prey, AD fusion; also called PN26317; O. sativa Putative Myosin Heavy Chain
In the case of B13, the binding result in assay [7] is on record as “binds”.

B14: OsPN23829 prey clone -2-195 (other)
chain: MALSVEKTSSGREYKVKDLSQADFGRLEIELAEVEMPGLMACRAEFGPSQPFKGARISGSLHMTIQTAVLIETLTALGAEVRWCSCNIFSTQDHAAAAIARDSAAVFAWKGETLEEYWWCTERCLDWGVGGGPDLIVDDGGDATLLIHEGVKAEEEFEKSGKVPDPESTDNAEFKIVLTIIRDGLKSDPSKYRKM
notes: prey, AD fusion
On to B14, for which the binding result in assay [2] is reported as “binds”.

B15: PN23949 aa 244-418 (other)
chain: HKLKSSLILMPMVSLLLLLLIRVLGRNRISPSPALSTLPKDEVERMVEEADKFAQEDKEKRDAIDTKNQADSVVYQTEKQLKELGDKVPAPVKEKVDAKLNELKEAIAGGSTQSMKDAMAALNEEVMQIGQAMYNQQPNAGAAGPTPGADAGPTSSGGKGPNDGDVIDADFTDSN
notes: prey, AD fusion; also called HSP70-like
Turning to B15, in assay [8], the binding result was “binds”.

B16: OsPN23274 aa 79-210 (other)
chain: GELPRSASLCLREVLLVLQRFKAIVADCSARSRMRLLLESDEMEAELRELNHDLATLLDLLPVVELGLADDVLDVLALASRQCRRCSPAPESEEALKASVLSLIQEIEREIVPERERLEEILVEVGINDPAS
notes: prey, AD fusion; also called Novel Protein PN23274, Similar to A. thaliana ARM Repeat-Containing Protein
Turning to B16, in assay [9], the binding result is recorded as “binds”.
